A protein production outcome set (Wang et al. 2014)
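Note: failed if final PepcDB status was selected cloned or expressed and not failed if soluble or beyond.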

Test: label from the status in PepcDB records
For “MASYDQISKNNWRYRISLGKNAETGKYEYISKTGFKRKSDAKHQAEMIGRQLRNGDYIAPSSSTFKQVADDWLKQYANDVKVSSVRAREKAIQHAIERFNTKPIQTIKKHDYQRFVDDISAQYSKNYVDSIVASTNMIFKYAYDTRLIKAMPSEGIKRPKKKVSVEELEDIEIHKKFLEKDELFQFLKVAKYHHSPQNSFEVFTTLAYTGMRAGELLALKWSDIDFENNTISITKTYYNPNNNKKHYQILTRKTESSIGKITVDPHVIQLLKDYKVNVQDTWKNELYVDNNFVFTDVNGYPLVIKKLQLWIKAILKKTDITNKQISTHSFRYTHYALLIEAGVHIKEIQERLRHKDINTTMNIYAKITNSYKKDASQKFSKLMENVSKGLF”, the protein production was “failed”. With “MASYTLRQLKYFVTTVECGSVAEASRKLYIAQPSISTAVKGLEESFGVQLFIRHHAQGVSLTPAGARFYRKAQELLRMAHEFEQNALADNDVIAGQIDIGCFETVAPLYLPGLIAGFRQAYPGVEIRIRDGEQQELVQGLTSGRFDLAFLYEHDLDSTIETEPLMPPQRPHALLPEGHRFAGQAQVSLRDLCLEPMILLDVQPSRTYFVSLFEELGLTPNIAFSSPSIEMVRGMVGQGFGFSLLVTRPHSECTYDGKKVVMVDLAEPVSTSGLAAAWLKRAQLTKPARLFVDYCREQLGKLAERRH” the protein production was “not failed”. With “MATAGNPWGWFLGYLILGVAGSLVSGSCSQIINGEDCSPHSQPWQAALVMENELFCSGVLVHPQWVLSAAHCFQNSYTIGLGLHSLEADQEPGSQMVEASLSVRHPEYNRPLLANDLMLIKLDESVSESDTIRSISIASQCPTAGNSCLVSGWGLLANGRMPTVLQCVNVSVVSEEVCSKLYDPLYHPSMFCAGGGQDQKDSCNGDSGGPLICNGYLQGLVSFGKAPCGQVGVPGVYTNLCKFTEWIEKTVQAS” the protein production was “not failed”. For “MATASIAIAETPLVNYALRRGDDALVLGHRLSEWCGHAPMLEEDMALANIGLDLIGQARELFNYAAEVEGAANTEDSLAYLRDVRQYRNLLLVEQPNGDFARTMLRQLFYSAFADSYWRAMMGSSDPTLAAIAAKSEKESAYHLRHASEWVIRLGDGTEESHRRAQAAVDELWAFTGEMFQVDDGDAALIADGIAIDPERLRAGWSETVASVLARATLQQPSSSWMQKGGRAGHHSEHLGHLLSELQSLQRSFPGATW”, the protein production was “failed”. With “MATATETSKATTKTQASAAADRESLTVSRAFNAPRDLVFQAWSAAEHLKHWFCPQGFTIPECEVEFRPGGKFDLWMRSLDGNYSHWIRGHYVEIIPHSRLVLDMTVVTEAGVALFNANTSVTFETVCGGTEMSVTQRYTALDPSAGNFTRGAEEGWAQTLDRLEKEVARIAAATPARSVAHGVFTIERTYDASPELVFRALSDPVAKAQWFNGGPGYTEVKRTMDVRPGGREHLQGRWENGLVSTFDAVYFDVIPNERLVYSYEMHMGERKISVSLATFELKRAGQGTRLVMTEQGAFLDGYDDAGSREHGSGLLLDAIGEWLKAMTKR” the protein production was “failed”. In the case of “MATDTAERRIAHVRGVTVTAIACLAGVAAAVVSAAVADGAGDTLGLYVLVGGIIVQFPLLRVLEMAGLQLDVDDFGAKDYLYIAFMTFAMWFVCWTVLLTTGASV”, the protein production is reported as “failed”. For “MATEPLTHPTAAPKRTRDLLAGLSIAGLLLPEAVAYSSIAALPPQAGVIALFAGLLCYGLLGTSRFAIVSATSSSAAVLAAATLSLAGGDAQLRLSLAFALVLLTGVFFLLAGLFRLGGVTAFIAKPVLRGFAFGLALTIVLKQFATVVGVHLSTGNLVRFLPQLLEQWPQWNWAGAAVAAVALLVLGICSRIPYVPGGLVAVVIGIGAGQWFNLPAHGVDLIGVIELKLEVPSLPQLPFADWLRLGELAFALVMILYAESYGSISSFALKHGDRVSSNRDLLALGASNLLSGLFHGMPAGAGYSATSANEAAGARSRLAGLTAAAVMLLIVLTVLPYIALTPEPVLAAIVMYALGHGLSLQPLGRYFIWRRDRVLVICAVSAVLVLGVLDGLLLSVGISILLLLRQMSAADIQILGQLGSGHDFVDLSRHPQARQVPGVLILRPGEALFFANAERILGGALRLIRHVQAPIHSIILSLEESPDLDGTSIEALDEFFRQVSLEHKHLALARLKHEAKDALALLPSSREYQVLLSGTSVDDTLQESLRGWKAGAFSQA”, the protein production was “failed”. In the case of “MATFSLGKHPHVELCDLLKLEGWSESGAQAKIAIAEGQVKVDGAVETRKRCKIVAGQTVSFAGHSVQVVA”, the protein production is reported as “not failed”. In the case of “MATGQDRVVALVDMDCFFVQVEQRQNPHLRNKPCAVVQYKSWKGGGIIAVSYEARAFGVTRSMWADDAKKLCPDLLLAQVRESRGKANLTKYREASVEVMEIMSRFAVIERASIDEAYVDLTSAVQERLQKLQGQPISADLLPSTYIEGLPQGPTTAEETVQKEGMRKQGLFQWLDSLQIDNLTSPDLQLTVGAVIVEEMRAAIERETGFQCSAGISHNKVLAKLACGLNKPNRQTLVSHGSVPQLFSQMPIRKIRSLGGKLGASVIEILGIEYMGELTQFTESQLQSHFGEKNGSWLYAMCRGIEHDPVKPRQLPKTIGCSKNFPGKTALATR”, the protein production is reported as “failed”. With “MATIQAFWRFSRPHTIIGTTLSVWAVYLLTILGDGNSVNSPASLDLVFGAWLACLLGNVYIVGLNQLWDVDIDRINKPNLPLANGDFSIAQGRWIVGLCGVASLAIAWGLGLWLGLTVGISLIIGTAYSVPPVRLKRFSLLAALCILTVRGIVVNLGLFLFFRIGLGYPPTLITPIWVLTLFILVFTVAIAIFKDVPDMEGDRQFKIQTLTLQIGKQNVFRGTLILLTGCYLAMAIWGLWAAMPLNTAFLIVSHLCLLALLWWRSRDVHLESKTEIASFYQFIWKLFFLEYLLYPLALWLPNFSNTIF” the protein production was “failed”. In the case of “MATKHEQILTYIDSLPVGEKISVRRIAKEMKVSEGTAYRAIKEAENKGFVSTIERVGTIRIEQKKKENIEKLTYAEVVNVIDGQVLGGRAGLHKTLNKFVIGAMELDAMMRYTAAGNLLIVGNRINAHRQALEAGAAVLVTGGFNTDDSIVQLADELELPILSTSYDTFTVAAMINRAIYDQLIKKEIVLVEDILTPADRTVYLSPKDKLEKWYEKNFETGHGRFPVVDDQMKIHGILTSKDIAGHDRNASIEKVMTKNPVTVIGKTSVASAAQMMVWEGIEVLPVTDGHQKLIGMISRQDVLKALQMIQKQPQVGEKLDDIVSRGFKDEGDDKEDQTVYEYEVTPQMTNQLGTISYGVFTTILTQAANRFLRSKKRGELVIESITIFFLKPVQMESVIEVKPRILEAGRKFGKMEVEVHSQGHIVSKAMLMVQLMERS”, the protein production is reported as “failed”. In the case of “MATLPASKSASKVALTSEVEDEGIKEHTFQEIEKLQDLGINAADINKLKGSGYCTILSLIQTTKKELCNVKGISEAKVDKILEVASKIENCSSFITANELVQKRSKVLKITTGSTVFDQTLGGGIESMCITELFGENRCGKTQVCHTLAVTAQLPKSLNGGNGKVCYIDTEGTFRPEKVCKIAERYGLDGEAVLDNILYARAFTHEHLYQLLAISAAKMCEEPFALLVVDSIISLFRVDFSGRGELSERQQKLNKTMSILSKLSEQFNIAILITNQVMSDPGATMTFIANPMKPVGGHVIGHASTIRLSLRKGKGDQRVCKVYDAPNLPEVECIFQLSDKGVIDATD”, the protein production is reported as “failed”. In the case of “MATNLIGLDTTQSQKLANALNNLLANYQVFYMNTRGYHWNIQGKEFFELHAKFEEIYTDLQLKIDELAERILTLSARPMHSFSGYLKAAQIKEHTDSIDGRSSMQGLVDGFSILLHQQRDILELAGETGDEGTSALMSDYIREQEKLVWMLNAWLK”, the protein production is reported as “not failed”. In the case of “MATPTEHEDLSEQEVTEDEFKTPKIRETPEDIKLEAIVNTIAFHPKQDILAAGDIDGDIYLFSYSCTEGENKELWSSGHHLKSCRKVLFSSDGQKLFSVSKDKAIHIMDVEAGKLETRIPKAHKVPINAMLLIDENIFATGDDEGTLKVWDMRKGTSFMDLKHHEDYISDITIDQAKRTLLTSSGDGTLGVFNIKRRRFELLSEIQNGDLTSVSIMKRGRKVVCGSGEGTIYIFNWNGFGATSDRFAVQAESVDCIVPITDSILCAASTDGVIRAINILPNRVVGSIGQHVGEAIEEIARCRDTHFLASCAHDELIKFWDISSLPDEKVNDYRRRKKKDRRLKALSNKAFDTGQNFFAGLLDTTEENGKEGENDEDDDDEDSDSGSD”, the protein production is reported as “not failed”. For “MATQYGALSYSSRTQSPARVMTRVMVEARRVLLGALATAAVVAFMSAVGWVALLALTVTIPFATIVVALAMAIRHFRQDRRALA”, the protein production was “failed”. In the case of “MATSRLQLEGDDSVHLHITHANLKSFSADARFSPQMSVEAVKEKLWKKCGTSVNSMALELYDDSGSKVAVLSDDSRPLGFFSPFDGFRLHIIDLDPSSVTTGGWLEDTSLVEKYNISEEDYAKRTDSFRKFKEKRVSQNPVAAEAKTKENYMEDLCANIKVGDRCQVEPGEKRGMVKYVGRAESLGPGYWVGIQYDEPLGKHDGMVKGTRFFECPRLQGGMVRPDKVKVGDYPERDPFEEDEI”, the protein production is reported as “failed”. With “MATSSTQLLLSSSSLFHSQITKKPFLLPATKIGVWRPKKSLSLSCRPSASVSAASSAVDVNESVTSEKPTKTLPFRIGHGFDLHRLEPGYPLIIGGIVIPHDRGCEAHSDGDVLLHCVVDAILGALGLPDIGQIFPDSDPKWKGAASSVFIKEAVRFRRLP” the protein production was “failed”. With “MATTLPRITARVDVDTQDLLAKAAALAGMSSINSFVLNAAIEKAKQVIEREQALKLSQADAVLLMEALDNPAVVNAKLKLASERYESKTQ” the protein production was “failed”. For “MAVEQPTAHAGGQSPAHAGEQSRIHNIGYRNYDGPRLGRAYARRSLYSQSLRGAYGLGRSVKSKVLPMLLFVVMCVPALIMVAVAVATKAKDLPVDYTRYAIIMQAVIGLYVASQAPQSVSRDLRFKTVPLYFSRPIETADYVRAKYAALASAMFILTAAPLLVLYVGALLAKLDFTDQTKGFAQGLVSVALLSLLFAGIGLVISAVTPRRGFGIAAVIAVLTISYGAVSTVQAIADAQNSTSAVPWLGLFSPVTLIDGMQTAFLGASSSFPGEAGPSSAQGVVFLIVVLGLIAGCYGLLMRRYRKVGL”, the protein production was “failed”. For “MAVGDQTEQNYLPKKKKSETEDDKRRKKIVPGSLLKAVVRPGGGDSSPVDGDQVIYHCTVRTLDGVVVESTRSESGGRGVPIRDVLGNSKMILGLLEGIPTMHKGEIAMFKMKPEMHYAEIDCPVSAPENFPKDDELHFEIELLDFSKAKIASDDLGVIKKILNEGEGWESPREPYEVKARISAKSGDGHVIFSHTEEPYFFTFGKSEVPKGLEIGIGTMARKEKAVIYVRKQYLTESPLLHIDQDLEEVHFEVELVHFIQVRDMLGDGRLIKRRIRDGRGEFPMDCPLQDSRLSVHYKGMLLNEEKTVFYDSKIDNNDQPLEFSSGEGLVPEGFEMCTRLMLPGEIALVTCPPDYAYDKFPRPPGVSEGAHVQWEIELLGFETPRDWTGLNFQSIMDEADKIRSTGNRLFKEGKFELAKAKYEKVLREFNHVNPQDEDEGKIFGDTRNMLHLNVAACLLKMGEWRKSIETCNKVLEAKPGHVKGLYRRGMAYIAGGEYDDARNDFNMMIKVDKSSEADATAALLKLKQKEQEAESKARKQFKGLFDKRPGEITEVGSEIREESKTIEEVDETKDNDDDETLEEEGATTVSTERKRKWSEKAWPFLKNVMLQIGIQLGVVLIGILIFQFVSAKFT”, the protein production was “failed”. For “MAVLLSSFSPLGINIDMNKNLGVSYSSFPQIHLFKGSTPLRVRTFVVSSRKNSGTGLASEDKKLLLERYGYDANDDFGSQSKKARRKEEKMSGRNSQQVEEVVVVQPRTTHRLLQVLAGTAKRKKLLSLKGMDVRPMMEVVKGAAFGILQAAGGCPTSLRPGRWLDLYSGTGSVGIEAISRGCSEAHFVEMDPWVVSNVLQPNLEHTGFVDASVIHTARVENFLERADKLVGKDGVFDYISVTPPYMEVDYEVLMDQIAKSPAIGENTFILVEYPSRTTMLDSCGCLEKMTDRRFGRTHLAIYGPKWAQKPRKS”, the protein production was “failed”. For “MAVLSMLGIIDAKPKVGYFYLGQYHASIGTSHFEKMTVSEIMGIPLTVHQKDSVYDVIVHIFMEDAGCAFILDDDDFLCGVVSRKDLLKISIGGGDLSKMPIGMVMTRMPHVTTVLENESLFAAADKLVSRKVDSLPVVRHDKQYPEKFKVIGKLSKTILASLFLEIRDY”, the protein production was “failed”.
